Measurements from patent EP2402371A1 (SANOFI, dated 2012).
Each block holds one binder with its values, some of them ahead of it.

Columns and labels:
[1] = biological target: T1, human GPVI on the platelet surface (human, UniProt Q9HCN6 21-339); test: cell-based or functional assay
T1 sequence (looked up): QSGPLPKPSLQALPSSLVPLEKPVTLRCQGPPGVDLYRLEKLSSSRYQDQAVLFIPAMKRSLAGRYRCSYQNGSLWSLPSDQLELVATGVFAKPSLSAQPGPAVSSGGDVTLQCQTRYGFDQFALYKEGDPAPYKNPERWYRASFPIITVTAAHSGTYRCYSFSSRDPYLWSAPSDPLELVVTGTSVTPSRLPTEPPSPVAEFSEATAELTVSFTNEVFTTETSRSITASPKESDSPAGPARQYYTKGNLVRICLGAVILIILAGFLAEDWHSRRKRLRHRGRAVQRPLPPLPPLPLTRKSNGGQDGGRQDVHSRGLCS

hGPVI-hFc fusion protein [2] = biological target: T2, hGPVI-hFc fusion protein (human); test: competition assay, GPVI-Fc pre-incubated with Fab, binding to collagen-coated plates (DELFIA), Test 1
T2 construct: also called GPVI-Fc fusion protein; human GPVI-Fc

hGPVI-hFc fusion protein [3] = biological target: T2, hGPVI-hFc fusion protein; test: competition assay, GPVI-Fc pre-incubated with Fab, binding to collagen-coated plates (DELFIA), Test 2
hGPVI-hFc fusion protein [4] = biological target: T2, hGPVI-hFc fusion protein; test: competition assay, GPVI-Fc pre-incubated with Fab, binding to collagen-coated plates (DELFIA), Test 3

B1: non-humanized Fab construct based on the original clone 390 without the His-tag (Fab, V domains shown)
VH: QVQLKESGPGLVAPSQSLSITCTVSGFSLTGYGVNWVRQPPGKGLEWLGMIWGDGSTDYNSTLKSRLSISKDNSKSQVFLKMNSLQTDDTARYYCARDLPMDYWGQGTSVTVSS
VL: DIQMTQSPSSLSASLGGKVTITCKASQDINKYIAWYQHKPGKGPSLLIHYTSTLQPGIPSRFSGSGSGRDYSFSISNLEPEDIATYYCLQYANLLTFGGGTKLEIKR
IC50 for inhibition of collagen induced platelet aggregation (human platelet rich plasma), Test 1 [1]: 1.6 µg/mL
IC50 for inhibition of collagen induced platelet aggregation (human platelet rich plasma), Test 2 [1]: 6.4 µg/mL
IC50 for inhibition of collagen induced platelet aggregation (human platelet rich plasma), Test 3 [1]: 1.3 µg/mL
IC50 (hGPVI-hFc fusion protein [2]): 0.49 µg/mL
IC50 (hGPVI-hFc fusion protein [3]): 0.56 µg/mL
IC50 (hGPVI-hFc fusion protein [4]): 0.99 µg/mL

B2: humanized anti-GPVI Fab VL1/VH2 (Fab, V domains shown)
VH: QVQLQESGPGLVAPSQSLSITCTVSGFSLTGYGVNWVRQPPSRGLEWLGMIWGDGSTDYQSTLKSRLSISKDNSKSQVFLKMNSLTTDDTARYYCARDLPMDYWGQGTSVTVSS
VL: DIQMTQSPSSLSASVGGRVTITCKASQDINKYIAWYQHKPGKGPSLLIHYTSTLQPGVPSRFSGSGSGRDYSFSISNLQPEDIATYYCLQYANLLTFGGGTKLEIKR
IC50 for inhibition of collagen induced platelet aggregation (human platelet rich plasma), Test 1 [1]: 2.3 µg/mL
IC50 for inhibition of collagen induced platelet aggregation (human platelet rich plasma), Test 2 [1]: 2 µg/mL
IC50 for inhibition of collagen induced platelet aggregation (human platelet rich plasma), Test 3 [1]: 1.1 µg/mL

B3: humanized anti-GPVI Fab VL3/VH2 (Fab, V domains shown)
VH: QVQLQESGPGLVAPSQSLSITCTVSGFSLTGYGVNWVRQPPSRGLEWLGMIWGDGSTDYQSTLKSRLSISKDNSKSQVFLKMNSLTTDDTARYYCARDLPMDYWGQGTSVTVSS
VL: DIQMTQSPSSLSASVGGRVTITCKASQDINKYIAWYQHKPGKGPSLLIHYTSTLQPGVPSRFSGSGSGRDYSFSISNLQPEDIATYYCLQYALLLTFGGGTKLEIKR
IC50 for inhibition of collagen induced platelet aggregation (human platelet rich plasma), Test 1 [1]: 1.9 µg/mL
IC50 for inhibition of collagen induced platelet aggregation (human platelet rich plasma), Test 2 [1]: 0.9 µg/mL
IC50 for inhibition of collagen induced platelet aggregation (human platelet rich plasma), Test 3 [1]: 2.1 µg/mL

B7: humanized anti-GPVI Fab VL1/VH3 (Fab, V domains shown)
VH: EVQLLESGPGLVAPSGSLSITCTVSGFSLTGYGVNWVRQPPGKGLEWLGMIWGDGSTDYQSTLKSRLSISKDNSKSQVFLKMNSLRTDDTARYYCARDLPMDYWGLGTSVTVSS
VL: DIQMTQSPSSLSASVGGRVTITCKASQDINKYIAWYQHKPGKGPSLLIHYTSTLQPGVPSRFSGSGSGRDYSFSISNLQPEDIATYYCLQYANLLTFGGGTKLEIKR
IC50 for inhibition of collagen induced platelet aggregation (human platelet rich plasma), Test 1 [1]: 1.7 µg/mL
IC50 for inhibition of collagen induced platelet aggregation (human platelet rich plasma), Test 2 [1]: 1.5 µg/mL
IC50 for inhibition of collagen induced platelet aggregation (human platelet rich plasma), Test 3 [1]: 1.5 µg/mL

B8: humanized anti-GPVI Fab VL3/VH4 (Fab, V domains shown)
VH: QVQLQESGPGLVAPSQSLSITCTVSGFSLTYYGVNWVRQPPSRGLEWLGMIWGDGSTDYQSTLKSRLSISKDNSKSQVFLKMNSLTTDDTARYYCARDLPMDYWGQGTSVTVSS
VL: DIQMTQSPSSLSASVGGRVTITCKASQDINKYIAWYQHKPGKGPSLLIHYTSTLQPGVPSRFSGSGSGRDYSFSISNLQPEDIATYYCLQYALLLTFGGGTKLEIKR
IC50 for inhibition of collagen induced platelet aggregation (human platelet rich plasma), Test 1 [1]: 1 µg/mL
IC50 for inhibition of collagen induced platelet aggregation (human platelet rich plasma), Test 2 [1]: 2.3 µg/mL
IC50 for inhibition of collagen induced platelet aggregation (human platelet rich plasma), Test 3 [1]: 2 µg/mL

B9: humanized anti-GPVI Fab VL1/VH1 (Fab, V domains shown)
VH: QVQLQESGPGLVAPSQSLSITCTVSGFSLTGYGVNWVRQPPSRGLEWLGMIWGDGSTDYQSTLKSRLSISKDTSKSQVFLKMNSLTTDDTARYYCARDLPMDYWGQGTSVTVSS
VL: DIQMTQSPSSLSASVGGRVTITCKASQDINKYIAWYQHKPGKGPSLLIHYTSTLQPGVPSRFSGSGSGRDYSFSISNLQPEDIATYYCLQYANLLTFGGGTKLEIKR
IC50 for inhibition of collagen induced platelet aggregation (human platelet rich plasma), Test 1 [1]: 1.5 µg/mL
IC50 for inhibition of collagen induced platelet aggregation (human platelet rich plasma), Test 2 [1]: 2.3 µg/mL

Second part, the binder after the results:

IC50 for inhibition of collagen induced platelet aggregation (human platelet rich plasma), Test 1 [1]: 1.4 µg/mL
IC50 for inhibition of collagen induced platelet aggregation (human platelet rich plasma), Test 2 [1]: 2.4 µg/mL
IC50 for inhibition of collagen induced platelet aggregation (human platelet rich plasma), Test 3 [1]: 2.3 µg/mL
B4: humanized anti-GPVI Fab VL2/VH2 (Fab, V domains shown)
VH: QVQLQESGPGLVAPSQSLSITCTVSGFSLTGYGVNWVRQPPSRGLEWLGMIWGDGSTDYQSTLKSRLSISKDNSKSQVFLKMNSLTTDDTARYYCARDLPMDYWGQGTSVTVSS
VL: DIQMTQSPSSLSASVGGRVTITCKASQDINKYIAWYQHKPGKGPSLLIHYTSTLQPGVPSRFSGSGSGRDYSFSISNLQPEDIATYYCLQYAHLLTFGGGTKLEIKR

IC50 for inhibition of collagen induced platelet aggregation (human platelet rich plasma), Test 1 [1]: 1.9 µg/mL
IC50 for inhibition of collagen induced platelet aggregation (human platelet rich plasma), Test 2 [1]: 2.3 µg/mL
IC50 for inhibition of collagen induced platelet aggregation (human platelet rich plasma), Test 3 [1]: 1.2 µg/mL
B5: humanized anti-GPVI Fab VL1/VH5 (Fab, V domains shown)
VH: QVQLQESGPGLVAPSQSLSITCTVSGFSLTGYGVNWVRQPPSRGLEWLGMIWGDGSTDYQSTLKSRLSISKDNSKSQVFLKMNSLTTDDTARYYCARDLPMDEWGQGTSVTVSS
VL: DIQMTQSPSSLSASVGGRVTITCKASQDINKYIAWYQHKPGKGPSLLIHYTSTLQPGVPSRFSGSGSGRDYSFSISNLQPEDIATYYCLQYANLLTFGGGTKLEIKR

IC50 for inhibition of collagen induced platelet aggregation (human platelet rich plasma), Test 1 [1]: 1.6 µg/mL
IC50 for inhibition of collagen induced platelet aggregation (human platelet rich plasma), Test 2 [1]: 1.8 µg/mL
IC50 for inhibition of collagen induced platelet aggregation (human platelet rich plasma), Test 3 [1]: 1.2 µg/mL
B6: humanized anti-GPVI Fab VL1/VH4 (Fab, V domains shown)
VH: QVQLQESGPGLVAPSQSLSITCTVSGFSLTYYGVNWVRQPPSRGLEWLGMIWGDGSTDYQSTLKSRLSISKDNSKSQVFLKMNSLTTDDTARYYCARDLPMDYWGQGTSVTVSS
VL: DIQMTQSPSSLSASVGGRVTITCKASQDINKYIAWYQHKPGKGPSLLIHYTSTLQPGVPSRFSGSGSGRDYSFSISNLQPEDIATYYCLQYANLLTFGGGTKLEIKR
